Reference: patent US20210145976A1
Substitutions are numbered along the chain they refer to.

B1: SEQ ID NO 107 (designed binder)
chain: MLPAPKNLVVSRVTEDSARLSWTAPDAAFDSFFIQYTESHWVGEAIVLTVPGSERSYDLTGLKPGTEYAVPIEGVKGGDSSTPLSAIFTT
B2: SEQ ID NO 136 (designed binder)
chain: MLPAPKNLVVSRVTEDSARLSWTAPDAAFDSFFIYYIESYPAGEAIVLTVPGSERSYDLTGLKPGTEYWMGIDGVKGGRWSTPLSAIFTT
B3: SEQ ID NO 41 (designed binder)
chain: B2 chain with V10I, M70V
B4: SEQ ID NO 37 (designed binder)
chain: MLPAPKNLVVSRVTEDSARLSWTAPDAAFDSFHIIYTEEEKEGEAIYLRVPGSERSYDLTGLKPGTEYLVEIEGVKGGKRSVPLNASFTT
B5: SEQ ID NO 134 (designed binder)
chain: MLPAPKNLVVSRVTEDSARLSWTAPDAAFDSFWIDYYERKYVGEAIVLTVPGSERSYDLTGLKPGTEYEVTIYGVKGGWYSDPLSAIFTT
B6: SEQ ID NO 111 (designed binder)
chain: MLPAPKNLVVSRVTEDSARLSWTAPDAAFDSFWIYYYESVGTGEAIVLTVPGSERSYDLTGLKPGTEYFVDISGVKVGTYSLPLSAIFTT
B7: SEQ ID NO 110 (designed binder)
chain: MLPAPKNLVVSRVTEDSARLSWTAPDAAFDSFFIHYHEWWEAGEAIVLTVPGSERSYDLTGLKPGTEYLVDIPGVKGGDLSVPLSAIFTT
B8: SEQ ID NO 120 (designed binder)
chain: B7 chain with F33R, H35E, H37I, E41V, A42G, L69W, P73K, D79K, L80R, V82Y
B9: SEQ ID NO 138 (designed binder)
chain: B7 chain with H35K, H37I, E41A, A42D, D71E, P73Y, D79R, L80Q, V82Y
B10: SEQ ID NO 39 (designed binder)
chain: MLPAPKNLVVSRVTEDSARLSWTAPDAAFDSFDIDYREWWTLGEAIVLTVPGSERSYDLTGLKPGTEYYVNIQGVKGGLRSYPLSAIFTT
B11: SEQ ID NO 121 (designed binder)
chain: MLPAPKNLVVSRVTEDSARLSWTAPDAAFDSFSIDYPEFPVRGEAIVLTVPGSERSYDLTGPKPGTEYNVTIQGVKGGFPSMPLSAIFTT
B12: SEQ ID NO 124 (designed binder)
chain: B11 chain with P62L, N69A, Q73W, P80T, M82Q
B13: SEQ ID NO 140 (designed binder)
chain: B11 chain with S33W, D35S, P37E, F39S, P40D, V41T, R42E, V47Y, T49R, P62L
B14: SEQ ID NO 106 (designed binder)
chain: MLPAPKNLVVSRVTEDSARLSWTAPDAAFDSFTIAYEEHGLVGEAIYLRVPGSERSYDLTGLKPGTEYHVGIMGVKGGVFSSPLSAIFTT
B15: SEQ ID NO 109 (designed binder)
chain: B14 chain with T33H, H39L, G40V, L41T, V42E, H69L, G71D, M73E, V79H, F80L
B16: SEQ ID NO 142 (designed binder)
chain: MLPAPKNLVVSRVTKDSARLSWTAPDAAFDSFHIAYEEATTYGEAIFLRVPGSERSYDLTGLKPGTEYEVKIHGVKGGADSKPLVAPFTT
B17: SEQ ID NO 126 (designed binder)
chain: MLPAPKNLVVSRVTEDSARLSWTAPDAAFDSFSIDYLELGESGEAIVLTVPGSERSYDLTGLKPGTEYWVYIFGVKGGYPSAPLSAIFTT
B18: SEQ ID NO 139 (designed binder)
chain: B17 chain with S33D, D35S, L37W, L39S, E41K, S42Y, R55S, W69L, Y71D, A82E
B19: SEQ ID NO 122 (designed binder)
chain: MLPAPKNLVVSRVTEDSARLSWTAPDAAFDSFQIPYWEQSLGGEAIVLTVPGSERSYDLTGLKPGTEYEVWIEGVKGGDLSFPLSAISTT
B20: SEQ ID NO 144 (designed binder)
chain: MLPAPKNLVVSRVTEDSARLSWTAPDAAFDSFIIPYAEVRPDGEAIVLTVPGSERSYDLTGLKPGTEYSVLIHGVKGGKLSLPLSAIFTT
B21: SEQ ID NO 146 (designed binder)
chain: B20 chain with I33Y, P35A, V39P, K79L, L82S
B22: SEQ ID NO 147 (designed binder)
chain: B20 chain with I33F, P35G, A37L, V39P, R40Q, D42P, K79R, L80N, L82D, F88S
B23: SEQ ID NO 38 (designed binder)
chain: MLPAPKNLVVSRVTEDSARLSWTAPDAAFDSFHIAYEESHTTGEAIFLRVPGSERSYDLTGLKPGTEYSVSIEGVKGGHYSPPLTAKFTT
B24: SEQ ID NO 143 (designed binder)
chain: MLPAPKNLVVSRVTEDSARLSWTAPDAAFDSFHIAYEEADSEGEAIYLRVPGSERSYDLTGLKPGTEYSVNIQGVKGGIVSFPLHAEFTT
B25: SEQ ID NO 105 (designed binder)
chain: MLPAPKNLVVSRVTEDSARLSWTAPDAAFDSFGIAYYERSGAGEAIVLTVPGSERSYDLTGLKPGTEYMVYINGVKGGFVSSPLSAIFTT
B26: SEQ ID NO 117 (designed binder)
chain: MLPAPKNLVVSRVTEDSARLSWTAPDAAFDSFTIPYGEAFNPGEAIVLTVPGSERSYDLTGLKPGTEYDVFIEGVKGGTLSWPLSAIFTT
B27: SEQ ID NO 132 (designed binder)
chain: B26 chain with P35V, G37A, A39V, F40T, N41Y, P42D, T79E
B28: SEQ ID NO 118 (designed binder)
chain: B26 chain with T33R, P35L, A39V, F40D, N41P, P42W, F71W, T79K
B29: SEQ ID NO 145 (designed binder)
chain: B26 chain with T33F, G37A, A39P, F40S, N41P, P42T, F71W
B30: SEQ ID NO 133 (designed binder)
chain: B26 chain with T33P, P35V, F40W, N41V, P42T, F71W, T79E
B31: SEQ ID NO 137 (designed binder)
chain: MLPAPKNLVVSRVTEDSARLSWTAPDAAFDSFEIEYDEPSVAGEAIVLTVPGSERSYDLTGLKPGTEYRVFIWGVKGGNQSWPLSAIFTT
B32: SEQ ID NO 130 (designed binder)
chain: MLPAPKNLVVSRVTEDSARLSWTAPDAAFDSFHIPYVEAEVPGEAIQLHVPGSERSYDLTGLKPGTEYYVEIWGVKGGFYSPPLIAEFTT
B33: SEQ ID NO 119 (designed binder)
chain: MLPAPKNLVVSRVTEDSARLSWTAPDAAFDSFHIEYEETPQKGEAIFLRVPGSERSYDLTGLKPGTEYVVNIRGVKGGDLSSPLGALFTT
B34: SEQ ID NO 128 (designed binder)
chain: MLPAPKNLVVSRVTEDSARLSWTAPDAAFDSFIINYIEIVQYGEAIVLTVPGSERSYDLTGLKPGTEYPESIWGVKGGGASSPLSAIFTT
B35: SEQ ID NO 115 (designed binder)
chain: MLPAPKNLVVSRVTEDSARLSWTAPDAAFDSFFIGYLEPQPPGEAIVLTVPGSERSYDLTGLKPGTEYNVTIQGVKGGFPSMPLSAIFTTT
B36: SEQ ID NO 127 (designed binder)
chain: MLPAPKNLVVSRVTEDSARLSWTAPDAAFDSFPIPYGESPPSGEAIVLTVPGSERSYDLTGLKPGTEYVVIIRGVKGGGRSGPLSAISTT
B37: SEQ ID NO 103 (designed binder)
chain: MLLAPKNLVVSRVTEDSARLSWTAPDAAFDSFAIEYFEYTGEGEAIVLTVPGSERSYDLTGLKPGTEYYVGIYGVKGGYLSRPLSAIFTT
B38: SEQ ID NO 114 (designed binder)
chain: B37 chain with L3P, F37W, Y39A, T40V, E42S, Y69H, G71Y, R82L
B39: SEQ ID NO 40 (designed binder)
chain: B37 chain with L3P, A33V, F37W, T40V, E42H, Y69S, Y79S
B40: SEQ ID NO 125 (designed binder)
chain: B37 chain with L3P, A33V, Y39F, T40V, Y69D, Y79S, R82S
B41: SEQ ID NO 104 (designed binder)
chain: B37 chain with L3P, R12H, A33D, F37Y, Y39L, T40V, E42S, G71A
B42: SEQ ID NO 141 (designed binder)
chain: B37 chain with L3P, A33V, Y39Q, T40F, G41N, E42L, Y69L, Y79W, R82H
B43: SEQ ID NO 113 (designed binder)
chain: MLPAPKNLVVSRVTEDSARLSWTAPDAAFDSFDIHYKEHSWWGEAIVLTVPGSERSYDLTGLKPGTEYIVPIPGVKGGGISRPLSAIFTT

These binders were tested against human serum albumin (human) (UniProt P02768) (assay: screening ELISA).
Sequence of human serum albumin (human) (P02768 25-609 limits assumed): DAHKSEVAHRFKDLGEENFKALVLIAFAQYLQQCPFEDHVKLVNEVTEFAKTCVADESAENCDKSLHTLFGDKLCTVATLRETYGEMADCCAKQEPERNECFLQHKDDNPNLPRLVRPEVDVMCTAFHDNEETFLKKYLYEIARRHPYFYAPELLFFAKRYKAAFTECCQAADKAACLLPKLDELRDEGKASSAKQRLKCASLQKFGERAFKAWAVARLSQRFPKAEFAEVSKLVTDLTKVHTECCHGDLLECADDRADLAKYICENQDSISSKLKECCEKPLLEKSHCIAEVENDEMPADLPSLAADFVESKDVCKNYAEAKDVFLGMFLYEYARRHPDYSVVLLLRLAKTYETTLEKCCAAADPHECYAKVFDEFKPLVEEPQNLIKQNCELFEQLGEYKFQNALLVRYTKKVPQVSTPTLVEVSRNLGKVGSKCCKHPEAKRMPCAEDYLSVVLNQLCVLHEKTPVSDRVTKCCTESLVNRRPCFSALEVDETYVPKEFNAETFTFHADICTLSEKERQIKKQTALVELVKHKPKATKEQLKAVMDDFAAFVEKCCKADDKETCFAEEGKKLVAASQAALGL

HSA | Binder
4050 | B1
5700 | B2
10100 | B3
2720 | B4
1950 | B5
7450 | B6
18800 | B7
1850 | B8
3500 | B9
4160 | B10
28600 | B11
3450 | B12
1600 | B13
1200 | B14
1250 | B15
3400 | B16
1750 | B17
2100 | B18
29600 | B19
2750 | B20
3800 | B21
71200 | B22

HSA | Binder
4160 | B23
9250 | B24
1400 | B25
23500 | B26
2350 | B27
18800 | B28
48400 | B29
5000 | B30
2050 | B31
6050 | B32
1850 | B33
3250 | B34
3450 | B35
93300 | B36
1200 | B37
4200 | B38
2960 | B39
1050 | B40
1700 | B41
3150 | B42
22600 | B43
